The values that follow are results of earlier work, collected in paper PMC293425.

The data set deals with relaxin receptor LGR7 (Homo sapiens) (UniProt Q9HBX9).
UniProt Q9HBX9, sequence (Q9HBX9 whole entry): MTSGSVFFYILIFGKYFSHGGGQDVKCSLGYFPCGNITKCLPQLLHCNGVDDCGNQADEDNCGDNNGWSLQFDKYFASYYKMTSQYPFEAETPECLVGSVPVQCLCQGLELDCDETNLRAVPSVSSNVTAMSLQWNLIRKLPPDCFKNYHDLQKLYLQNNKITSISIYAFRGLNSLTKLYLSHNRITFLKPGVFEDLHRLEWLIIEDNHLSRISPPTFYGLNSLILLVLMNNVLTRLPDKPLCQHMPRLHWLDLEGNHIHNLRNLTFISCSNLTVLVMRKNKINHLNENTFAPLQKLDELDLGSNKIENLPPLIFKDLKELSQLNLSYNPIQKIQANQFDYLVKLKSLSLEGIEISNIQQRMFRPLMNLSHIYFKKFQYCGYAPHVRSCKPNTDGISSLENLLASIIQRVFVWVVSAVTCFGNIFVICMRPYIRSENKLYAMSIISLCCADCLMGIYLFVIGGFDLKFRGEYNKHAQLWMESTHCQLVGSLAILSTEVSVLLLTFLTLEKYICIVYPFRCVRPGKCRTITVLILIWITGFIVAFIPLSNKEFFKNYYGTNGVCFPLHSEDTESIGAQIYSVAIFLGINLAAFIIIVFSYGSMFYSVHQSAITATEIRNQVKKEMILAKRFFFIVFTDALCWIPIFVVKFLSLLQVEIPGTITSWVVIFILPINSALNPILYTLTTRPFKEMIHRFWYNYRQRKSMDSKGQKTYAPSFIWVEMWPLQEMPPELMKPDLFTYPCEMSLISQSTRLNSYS

relaxin, sequence (P04090 162-185): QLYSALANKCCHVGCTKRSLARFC

What is called Kd is the constant that tells how readily two partners part at equilibrium. For relaxin (from UniProt P04090), the Kd is 1 nM.
